Several values for one entry are separate records, joined by “and”; a condition that tells them apart may be missing. Equal entries are not always repeated. Where a SMILES comes first, the peptide text is derived from it. Bridges are numbered along the chain shown (N, C = ends). Where no end group is shown, it is not given here.
Columns and labels:
[1] = system: non-transfected cells; experiment: Intracellular calcium ([Ca2+]i) measurement with fura-2 in non-transfected cells; type: cell-based, human; conditions: data not shown
Text: (§1) The entire coding sequence of human HG67 was cloned into BamHI -NotI site of pEF1/V5-HisB plasmid vector (Invitrogen, Carlsbad, Calif.). The resultant construct was transfected into HEK-293T cells using Effectene (Qiagen, Hilden, Germany) or LipofectAmine PLUS (Life Technologies) according to the manufacture's instructions. Human embryonic kidney cells constitutively expressing SV40 large T antigen (HEK-293T) were maintained in D-MEM/F-12 medium (Life Technologies, Rockville, Md.) supplemented with 10% fetal bovine serum, 100 units/ml penicillin-G and 100 μg/ml streptomycin at 37° C. with 5% CO2 in a humidified atmosphere.
(§2) The intracellular calcium ion concentration ([Ca^2+]i) was measured fluorometrically using a Ca^2+-sensitive fluorescent dye, fura-2. HEK293T cells transiently transfected with pEF1/V5-HisB plasmid vector harboring HG67 cDNA were harvested by phosphate-buffered saline containing 2 mM EDTA 48 hours after transfection, and washed once with the assay buffer (Hanks' balanced salt solution, 10 mM HEPES, 0.1% BSA, pH 7.4). The cells were suspended with the buffer containing 2 μM fura-2 acetoxymethylester (Dojin, Kumamoto, Japan) into the cell density of 1.0×10^7 cells/ml and incubated at 37° C. for 60 minutes with gently shaking. The fura-2-loaded cells were washed twice with the buffer and re-suspended with the buffer to 1.0×10^6 cells/ml. […]

[2] = target: T1, HG67 (Homo sapiens, UniProt Q969V1); experiment: Intracellular calcium ([Ca2+]i) measurement with fura-2 in HEK293T cells transiently expressing HG67; type: cell-based; conditions: HEK293T cells transiently expressing HG67, fura-2; read-out: EC50 of increase in intracellular calcium levels
T1 construct: expressed in transfected cells; host or cells: HEK-293T, transient
T1 sequence (Q969V1 whole entry): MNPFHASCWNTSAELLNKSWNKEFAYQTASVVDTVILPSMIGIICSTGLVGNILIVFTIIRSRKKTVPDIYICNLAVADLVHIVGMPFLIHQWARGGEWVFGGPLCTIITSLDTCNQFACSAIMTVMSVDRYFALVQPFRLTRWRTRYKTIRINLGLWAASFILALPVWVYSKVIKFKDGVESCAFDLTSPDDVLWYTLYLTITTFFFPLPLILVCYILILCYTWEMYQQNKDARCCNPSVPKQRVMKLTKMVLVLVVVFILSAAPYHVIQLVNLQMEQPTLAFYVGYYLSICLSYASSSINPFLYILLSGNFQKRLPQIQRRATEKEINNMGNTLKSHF
Text: as §1, §2

[3] = target: T2, MCH-R1 (Homo sapiens, UniProt Q99705); conditions: Lembo, et al., 1999; cited from earlier work
[4] = target: T2, MCH-R1; experiment: Pertussis toxin effect on MCH-R1 signaling; type: cell-based; conditions: dose dependent
Text: MCH-R2 appears to activate Gαq. […] Intracellular calcium mobilization through MCH-R2 was not affected by different concentrations of pertussis toxin (PTX), while MCH-R1 signaling was reduced in a dose dependent manner to about 50%. The results of incomplete PTX-inhibition of MCH-R1 signaling is in contrast to Lembo, et al., 1999. […] (Tadayyon, et al., 2000. 275(2), 709-712).

[5] = target: T2, MCH-R1; experiment: SPA, CHO/MCH-R1 membranes, nonspecific defined with 500 nM unlabeled MCH
[6] = target: HG67 (melanin-concentrating hormone receptor 2) (human) (UniProt Q969V1); experiment: SPA, COS or CHO MCH-R2 membranes, nonspecific defined with 500 nM unlabeled MCH
HG67 (melanin-concentrating hormone receptor 2) (human), sequence (Q969V1 whole entry): as above

[7] = target: HG67 (melanin-concentrating hormone receptor 2) (human) (UniProt Q969V1); experiment: cell-based or functional assay
[8] = target: T2, MCH-R1; experiment: cell-based or functional assay
[9] = target: T2, MCH-R1; experiment: SPA, displacement of [125I]Phe13Tyr19-MCH from MCH-R1 membranes
[10] = target: HG67 (melanin-concentrating hormone receptor 2) (human) (UniProt Q969V1); experiment: SPA, displacement of [125I]Phe13Tyr19-MCH from MCH-R2 membranes
[11] = system: mock transfected cells; experiment: [125I]-MCH binding to mock transfected HEK293T cells; parameters: species or system human
[12] = target: T3, MCH-R1 (Homo sapiens (Human), UniProt Q99705 1-353); experiment: SPA, displacement of [125I]Phe13Tyr19-MCH from MCH-R1 membranes
T3 construct: also called MCH-1R; CHO/MCH-R1
T3 sequence (Q99705 whole entry, form in doubt): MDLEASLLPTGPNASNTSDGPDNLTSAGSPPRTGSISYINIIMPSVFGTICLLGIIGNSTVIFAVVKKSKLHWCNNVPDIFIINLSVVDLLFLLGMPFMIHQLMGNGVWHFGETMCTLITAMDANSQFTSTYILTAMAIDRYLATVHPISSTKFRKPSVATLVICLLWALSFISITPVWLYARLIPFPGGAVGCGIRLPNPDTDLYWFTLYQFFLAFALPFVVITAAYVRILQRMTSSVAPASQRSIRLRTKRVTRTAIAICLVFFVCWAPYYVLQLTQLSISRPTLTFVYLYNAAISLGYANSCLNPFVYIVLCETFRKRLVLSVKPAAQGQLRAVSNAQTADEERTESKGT
Experimental: (§3) SPA was carried out using wheat-germ agglutinin-polyvinyltoluene beads (Amersham Corp., Arlington Heights, Ill.), in 96-well OptiPlates (Packard, Meriden, Conn.). Each well contained 0.25 mg of SPA beads, 1–10 μg of membrane protein, and 200 μl of binding buffer.
(§4) After equilibrating at room temperature for 3 hours, the plates were read in a TopCount (Packard, Meriden, Conn.). IC$50$ calculations were performed using Prism 3.0 (GraphPad Software, San Diego, Calif.).

[13] = target: T4, HG67 (melanin-concentrating hormone receptor 2) (human, UniProt Q969V1 1-340); experiment: SPA, displacement of [125I]Phe13Tyr19-MCH from MCH-R2 membranes
T4 construct: also called MCH-R2; MCH-2R
T4 sequence (Q969V1 whole entry): as the sequence (Q969V1 whole entry) above
Experimental: as §3, §4

[14] = target: T3, MCH-R1; experiment: cell-based or functional assay
[15] = target: T4, HG67 (melanin-concentrating hormone …); experiment: cell-based or functional assay
[16] = target: T4, HG67 (melanin-concentrating hormone …); experiment: cell-based or functional assay; remark: listed apart in the source

Molecule: CSCC[C@@H]1NC(=O)[C@@H](NC(=O)[C@H](CCCNC(=N)N)NC(=O)[C@H](CC(C)C)NC(=O)[C@H](CCSC)NC(=O)[C@H](CC(=O)O)NC(=O)[C@H](Cc2ccccc2)NC(=O)[C@@H](N)CC(=O)O)CSSC[C@@H](C(=O)N[C@@H](Cc2c[nH]c3ccccc23)C(=O)N[C@@H](CCC(N)=O)C(=O)N[C@@H](CC(C)C)C(=O)O)NC(=O)[C@@H]2CCCN2C(=O)[C@H](CCCNC(=N)N)NC(=O)[C@H](Cc2ccccc2)NC(=O)[C@H](C(C)C)NC(=O)[C@H](CCCNC(=N)N)NC(=O)CNC(=O)[C@H](CC(C)C)NC1=O [[Phe^13, Leu^19]-MCH] (H-DFDMLRCMLGRVFRPCWQL-OH; disulfide 7-16 (inferred); N-terminus and C-terminus assumed)
- [Ca2+]i increase in the non-transfected cells [1]: failed to induce detectable [Ca^2+]i increase
- EC50 [2]: 0.078 nM

Molecule: pertussis toxin
- PTX inhibition of MCH-1R signaling [3]: complete PTX inhibition
- MCH-R1 signaling remaining after PTX (reduced to) [4]: about 50%

Molecule: [125I]Phe^13Tyr^19-MCH (from UniProt P20382 147-165) (peptide)
- specific binding window [5]: 6 x
- specific binding window [6]: 3 x

Molecule: Salmon MCH (peptide)
- Function (EC50) [7]: 90.5 nM
- Function (EC50) [8]: 119 nM
- IC50 [9]: 0.2 nM
- IC50 [10]: 437 nM

Molecule: [^125I]-MCH: radioiodinated MCH, NEN Life Science Products
- Specific binding to mock transfected cells ([11]; in words): any specific binding was not observed
- Nonspecific binding (1 μM MCH) ([11]; mock transfected HEK293T cells, [125I]-MCH 100 pM plus 1 μM cold MCH, two values per cell): 352.2 Cpm and 326.6 Cpm
- Total binding (DMSO) ([11]; mock transfected HEK293T cells, [125I]-MCH 100 pM, two values per cell): 516.4 Cpm and 392.5 Cpm

Molecule: [Phe^13, Leu^19]-MCH (from UniProt P20382 147-165) (peptide)
- increase in intracellular calcium levels (fura-2), EC50 [7]: 0.078 nM

Molecule: Melanin-concentrating hormone [MCH]
- [Ca2+]i increase in the non-transfected cells [1]: failed to induce detectable [Ca^2+]i increase

Molecule: DFDMLRCMLGRVFRPCWQY [(Phe^13Tyr^19)-MCH]
- IC50 [12]: 0.3 nM
- IC50 [13]: 0.8 nM
- Function (EC50) [14]: 83.1 nM
- Function (EC50) [15]: 65.5 nM

B1: human melanin-concentrating hormone (MCH) (peptide, UniProt P20382 147-165, looked up)
peptide: DFDMLRCMLGRVYRPCWQV
modifications: ends and bridges not checked; cysteine pairing not given here
notes: mature; Both are treated as one molecule; the mature 19-mer is its C-terminal part; also called Human MCH; cold MCH
- IP turnover, EC50 [16]: 2.8 nM
- aequorin assay in HEK293/aeq17/Galpha15 cells, EC50 [16]: 26 nM
- increase in intracellular calcium levels (fura-2), EC50 [16]: 0.02 nM
- IC50 [13]: 1.5 nM
- Function (EC50) [15]: 44.1 nM
